Results on one molecule are retold here after patent US20130273053A1 (UNIVERSITY OF LEICESTER, published 2013).

This assay deals with T1, human MASP-3 (human).
T1 construct: also called MASP-3 antigen
T1 chain: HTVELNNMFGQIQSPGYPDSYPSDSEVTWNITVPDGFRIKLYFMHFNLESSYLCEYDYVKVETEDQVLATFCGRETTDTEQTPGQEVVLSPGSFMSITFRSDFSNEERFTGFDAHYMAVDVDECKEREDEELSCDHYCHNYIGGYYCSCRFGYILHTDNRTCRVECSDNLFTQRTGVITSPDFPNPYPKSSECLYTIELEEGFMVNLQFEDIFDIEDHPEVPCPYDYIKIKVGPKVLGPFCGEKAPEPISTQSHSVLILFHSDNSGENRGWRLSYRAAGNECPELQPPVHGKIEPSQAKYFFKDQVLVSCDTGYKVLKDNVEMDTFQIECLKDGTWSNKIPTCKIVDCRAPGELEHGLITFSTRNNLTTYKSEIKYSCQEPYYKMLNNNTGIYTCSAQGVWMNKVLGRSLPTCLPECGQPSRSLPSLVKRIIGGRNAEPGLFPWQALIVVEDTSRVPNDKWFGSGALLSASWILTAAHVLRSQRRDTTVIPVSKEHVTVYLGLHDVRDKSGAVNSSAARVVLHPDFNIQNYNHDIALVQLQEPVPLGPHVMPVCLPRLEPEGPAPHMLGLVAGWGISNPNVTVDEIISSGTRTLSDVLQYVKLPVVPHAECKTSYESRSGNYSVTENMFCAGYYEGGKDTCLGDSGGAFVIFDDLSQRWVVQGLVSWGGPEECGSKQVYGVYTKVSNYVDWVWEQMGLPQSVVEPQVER
Kind of assay: saturation binding, DTLacO cells stained with fluorescent-labeled soluble antigen. The text has this:
Recombinant antibodies were generated by cloning PCR-amplified V regions into a vector that supported expression of human IgG1 in 293F cells (Yabuki et al., PLoS ONE, 7(4):e36032 (2012)).

B1: MASP-3 specific clone M3J5 (antibody, IgM, V domains shown)
VH: AVTLDESGGGLQTPGGGLSLVCKASGFTFSSYAMGWMRQAPGKGLEYVAGIRSDGSFTLYATAVKGRATISRDNGQSTVRLQLNNLRAEDTATYFCTRSGNVGDIDAWGHGTEVIVSS
VL: ALTQPASVSANPGETVKITCSGGYSGYAGSYYYGWYQQKAPGSAPVTLIYYNNKRPSDIPSRFSGSLSGSTNTLTITGVRADDEAVYFCGSADNSGAAFGAGTTLTVL
notes: Chicken V regions; also called Clone 5; DTLacO clone M3J5
In turn, B1 came in with a Kd of approximately 31 nM.

The term Kd denotes the concentration at which binding is half-saturated. A lower Kd goes with tighter binding.
